# In publication PMC5425256 (Developmental Cell, 2017):
# Target: recombinant GST-Pak6 (from pMW-GST-Pak6, E. coli) (human, UniProt Q9NQU5 1-681)
# Assay: pull-down
# Settings: both partners purified
# Chain of recombinant GST-Pak6 (from pMW-GST-Pak6, E. coli) (Q9NQU5 whole entry): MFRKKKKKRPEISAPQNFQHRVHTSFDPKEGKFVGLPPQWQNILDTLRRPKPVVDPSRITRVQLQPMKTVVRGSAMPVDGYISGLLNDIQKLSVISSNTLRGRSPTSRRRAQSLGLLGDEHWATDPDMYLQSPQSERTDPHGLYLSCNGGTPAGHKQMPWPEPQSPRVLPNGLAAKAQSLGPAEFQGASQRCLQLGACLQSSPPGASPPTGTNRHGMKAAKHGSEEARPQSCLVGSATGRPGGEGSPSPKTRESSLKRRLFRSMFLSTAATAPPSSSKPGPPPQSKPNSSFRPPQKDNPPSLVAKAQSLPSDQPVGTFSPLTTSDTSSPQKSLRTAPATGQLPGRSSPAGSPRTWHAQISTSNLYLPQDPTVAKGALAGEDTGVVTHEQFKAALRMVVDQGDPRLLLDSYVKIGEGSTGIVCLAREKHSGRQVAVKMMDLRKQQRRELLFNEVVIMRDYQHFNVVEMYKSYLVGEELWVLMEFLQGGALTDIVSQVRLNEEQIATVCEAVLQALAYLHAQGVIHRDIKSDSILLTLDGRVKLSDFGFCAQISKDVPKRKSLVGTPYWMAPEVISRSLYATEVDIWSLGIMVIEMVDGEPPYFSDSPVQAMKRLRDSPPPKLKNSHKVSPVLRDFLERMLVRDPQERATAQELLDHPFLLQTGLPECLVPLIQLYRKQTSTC
binder,measurement,value
"recombinant His-RhoD loaded with GTPγS (natural protein, mouse, UniProt P97348 1-210, looked up) MNASQVAGEEAPQSGHSVKVVLVGDGGCGKTSLMMVFAKGAFPESYSPTVFERYNATLQMKGKPVHLQIWDTAGQDDYDRLRPLFYPDANVLLLCFDVTNPNSFDNVSNRWYPEVTHFCKGVPIIVVGCKIDLRKDKVLVNNLRKKRLEPVTYHRGHDMARSVGAVAYLECSARLHDNVEAVFQEAAEVALSSRRHNFWRRITQNCCLAT",binding result,binds
